For 1 substance, Kd results are on record in US20090004111.

This data set concerns the target NS5A domain I-Δh (HCV NS5A N-terminal domain) (Hepatitis C virus) (UniProt Q9WMX2). The experiment in a line: EMSA. The settings on record: approximate Kd, non-specific RNA sequence; text says NS5A, construct taken as the purified domain I-Δh. (In general: A gel shift assay detects complexes by their altered migration in electrophoresis.)
Chain of UniProt Q9WMX2 (Q9WMX2 1997-2188, tags or fused parts left off): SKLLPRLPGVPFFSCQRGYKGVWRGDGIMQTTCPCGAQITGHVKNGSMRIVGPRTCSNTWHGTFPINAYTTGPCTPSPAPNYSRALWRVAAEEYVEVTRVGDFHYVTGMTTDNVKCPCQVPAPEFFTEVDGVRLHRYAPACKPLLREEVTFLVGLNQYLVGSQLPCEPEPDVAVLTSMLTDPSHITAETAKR

For orientation: Kd means the constant that tells how readily two partners part at equilibrium. A low value points to a tighter complex. In the case of “non-specific ssRNA (plasmid polylinker transcript)”, the dissociation constant (Kd) was 10 nM.
